This experiment deals with Human Macrophage Galactose Lectin (MGL) isoform 2 extracellular domain (residues Q85-H316) (human). Put plainly: SAXS.

A word on the stoichiometry N: it is the number of molecules, sites or subunits per partner or assembly.

On to “Human Macrophage Galactose Lectin (MGL) isoform 2 extracellular domain (residues Q85-H316) (domain or fragment)”, for which the stoichiometry N was 3.

These data come from publication doi:10.1101/2023.03.02.530591.
